Results on one molecule are retold here after article PMC5887453 (Nucleic Acids Research, 2018).

One assay concerns the target T1, PhoEF-2 K225S (Pyrococcus horikoshii, UniProt O59521 1-732, K225S).
T1 sequence (looked up): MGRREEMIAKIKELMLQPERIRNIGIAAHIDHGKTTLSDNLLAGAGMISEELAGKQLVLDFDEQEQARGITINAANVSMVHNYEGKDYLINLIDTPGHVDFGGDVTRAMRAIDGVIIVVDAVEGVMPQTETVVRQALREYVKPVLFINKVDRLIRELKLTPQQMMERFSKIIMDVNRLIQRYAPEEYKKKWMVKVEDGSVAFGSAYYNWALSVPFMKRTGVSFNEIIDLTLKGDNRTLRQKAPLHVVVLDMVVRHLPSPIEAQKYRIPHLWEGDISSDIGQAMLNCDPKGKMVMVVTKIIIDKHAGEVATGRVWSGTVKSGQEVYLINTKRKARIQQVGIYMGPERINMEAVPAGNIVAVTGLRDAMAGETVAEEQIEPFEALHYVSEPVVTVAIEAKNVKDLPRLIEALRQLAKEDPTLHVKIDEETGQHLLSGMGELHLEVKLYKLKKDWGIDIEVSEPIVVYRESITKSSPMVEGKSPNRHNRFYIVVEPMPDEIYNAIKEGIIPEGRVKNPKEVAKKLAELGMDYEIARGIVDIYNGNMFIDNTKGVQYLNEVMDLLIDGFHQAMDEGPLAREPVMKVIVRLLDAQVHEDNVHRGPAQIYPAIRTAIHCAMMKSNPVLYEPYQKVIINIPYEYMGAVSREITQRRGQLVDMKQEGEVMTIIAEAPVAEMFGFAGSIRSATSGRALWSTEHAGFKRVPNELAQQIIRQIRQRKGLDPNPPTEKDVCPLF
In words: native gel or EMSA.

The next assay concerns the target T2, PhoEF-2 L214S/V216S (Pyrococcus horikoshii, UniProt O59521 1-732, L214S | V216S).
T2 sequence (looked up): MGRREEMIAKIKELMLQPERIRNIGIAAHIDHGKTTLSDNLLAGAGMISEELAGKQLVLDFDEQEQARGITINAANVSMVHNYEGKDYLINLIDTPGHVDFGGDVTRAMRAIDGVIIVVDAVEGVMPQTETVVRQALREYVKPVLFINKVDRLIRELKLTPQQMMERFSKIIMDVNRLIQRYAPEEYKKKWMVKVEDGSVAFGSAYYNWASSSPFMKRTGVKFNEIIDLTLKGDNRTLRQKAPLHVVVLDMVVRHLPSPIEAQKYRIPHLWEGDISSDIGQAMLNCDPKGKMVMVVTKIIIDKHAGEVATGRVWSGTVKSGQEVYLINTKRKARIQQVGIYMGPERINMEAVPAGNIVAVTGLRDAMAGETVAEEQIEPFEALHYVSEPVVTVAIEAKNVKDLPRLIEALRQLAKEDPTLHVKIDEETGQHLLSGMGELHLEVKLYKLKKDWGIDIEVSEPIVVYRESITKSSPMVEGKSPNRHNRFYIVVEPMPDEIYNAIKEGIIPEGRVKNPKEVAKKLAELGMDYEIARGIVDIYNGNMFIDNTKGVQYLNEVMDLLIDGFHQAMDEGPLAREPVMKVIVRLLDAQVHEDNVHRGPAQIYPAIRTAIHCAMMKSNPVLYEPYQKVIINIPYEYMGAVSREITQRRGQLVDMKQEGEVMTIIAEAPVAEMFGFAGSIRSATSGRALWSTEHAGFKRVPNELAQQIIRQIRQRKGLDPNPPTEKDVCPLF
In words: native gel or EMSA.

B1: Pyrococcus horikoshii ribosomal stalk protein P1 (natural protein, UniProt O57705 1-108, looked up)
chain: MEYVYAALLLHSVGKEINEENLKAVLQAAGVEPEEARIKALVAALEGVNIDEVIEKAAMPVAVAAAPAAAPAEAGGEEKKEEEKKEEEEKEEEVSEEEALAGLSALFG
modifications: in the SPR only: biotin on amino groups via a PEG linker (EZ-Link NHS-PEG4-Biotin)
For the molecule B1, the binding result in the assay with PhoEF-2 K225S and in the assay with PhoEF-2 L214S/V216S was “binds” throughout.
